Measurements reported in patent publication US20030166143A1 (CADUS TECHNOLOGIES, published 2003).

T1: human formyl peptide receptor like-1 (FPRL-1) receptor (human, UniProt P25090 1-351)
T1 sequence (looked up): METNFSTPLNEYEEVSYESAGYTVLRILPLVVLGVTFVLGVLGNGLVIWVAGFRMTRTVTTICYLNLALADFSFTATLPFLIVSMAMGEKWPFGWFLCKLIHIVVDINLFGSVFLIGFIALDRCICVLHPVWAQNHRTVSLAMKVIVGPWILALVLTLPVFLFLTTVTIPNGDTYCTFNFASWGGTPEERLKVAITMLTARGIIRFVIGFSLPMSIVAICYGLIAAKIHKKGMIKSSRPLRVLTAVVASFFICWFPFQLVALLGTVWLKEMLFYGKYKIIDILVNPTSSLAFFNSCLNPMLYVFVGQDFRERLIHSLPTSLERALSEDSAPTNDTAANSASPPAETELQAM


Columns and labels:
[1] = molecular target: C5a receptor (human) (UniProt P21730); experiment: cell-based or functional assay
Sequence of C5a receptor (human) (P21730 whole entry): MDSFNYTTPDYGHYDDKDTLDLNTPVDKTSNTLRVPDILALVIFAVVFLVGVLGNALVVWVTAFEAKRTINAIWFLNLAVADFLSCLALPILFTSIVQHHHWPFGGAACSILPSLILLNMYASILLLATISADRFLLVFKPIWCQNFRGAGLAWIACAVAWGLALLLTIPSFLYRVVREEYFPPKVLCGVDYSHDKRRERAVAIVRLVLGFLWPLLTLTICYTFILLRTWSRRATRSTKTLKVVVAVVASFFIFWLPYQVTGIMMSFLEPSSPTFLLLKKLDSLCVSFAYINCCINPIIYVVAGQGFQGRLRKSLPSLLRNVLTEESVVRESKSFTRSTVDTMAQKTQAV

[2] = molecular target: T1, human formyl peptide receptor like-1 …; experiment: cell-based or functional assay

fold increase in lacZ expression (fus1:lacZ, autocrine yeast) [1]	fold stimulation of β-galactosidase (fus1-lacZ) over background [2]	Molecule
8 to 12 fold		native C5a ligand (from UniProt P01031 678-751)
	8 fold	SLLWLTCRPWEAM [peptide A5, Ser-Leu-Leu-Trp-Leu-Thr-Cys-Arg-Pro-Trp-Glu-Ala-Met]
